Experimental data from patent US20060094659A1.

Assays:
[1] = target: CD44 on the surface of U937-C5aR cells and human neutrophils (human) (UniProt P16070); experiment: Biacore SPR, U937-C5aR cells pretreated with 25 µg/ml anti-CD44, DBP immobilized
[2] = target: CD44 on the surface of U937-C5aR cells and human neutrophils (human) (UniProt P16070); experiment: AlexaFluor 488-labeled DBP binding to U937-C5aR cells pretreated with antibody, fluorescence
[3] = target: annexin A2 on the surface of U937-C5aR cells and human neutrophils (human) (UniProt P07355); experiment: as above
Sequence of annexin A2 on the surface of U937-C5aR cells and human neutrophils (human) (P07355 2-339): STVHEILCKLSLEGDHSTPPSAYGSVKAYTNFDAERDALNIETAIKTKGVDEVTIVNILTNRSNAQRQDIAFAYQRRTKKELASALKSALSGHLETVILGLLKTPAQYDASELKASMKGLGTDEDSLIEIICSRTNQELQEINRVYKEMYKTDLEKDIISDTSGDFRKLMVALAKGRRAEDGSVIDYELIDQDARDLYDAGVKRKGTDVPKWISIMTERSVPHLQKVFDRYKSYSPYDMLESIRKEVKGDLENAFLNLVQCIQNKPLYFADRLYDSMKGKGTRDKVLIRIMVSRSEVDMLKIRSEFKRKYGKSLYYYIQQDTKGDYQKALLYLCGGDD

[4] = target: cell surface DBP binding site complex; experiment: Biacore SPR, U937-C5aR cells pretreated with 0.5 µM peptide 2, DBP immobilized (competitor: immobilized DBP)

affinity-purified goat polyclonal anti-CD44 (N-18), Santa Cruz Biotechnology (antibody)
percent inhibition of cell binding to immobilized DBP [1]: 50%
percent blocking of DBP binding to cells [2]: 50%

affinity-purified goat polyclonal anti-annexin A2 (C-16), Santa Cruz Biotechnology (antibody)
percent blocking of DBP binding to cells [3]: 50%

NYGQAPLSLLVSYTKSYLSMVGS [DBP peptide 2 (residues 150-172)]
percent inhibition of cell binding to immobilized DBP [4]: 50%
